Bridges are numbered along the chain shown (N, C = ends). Where no end group is shown, it is not given here.
Columns and labels:
CTLA-4 [1] = molecular target: T1, CTLA-4 (Homo sapiens, UniProt P16410); test: Alanine scanning of clone #10, binding evaluated by ELISA; details: mutants of clone #10
T1 sequence (P16410 36-223): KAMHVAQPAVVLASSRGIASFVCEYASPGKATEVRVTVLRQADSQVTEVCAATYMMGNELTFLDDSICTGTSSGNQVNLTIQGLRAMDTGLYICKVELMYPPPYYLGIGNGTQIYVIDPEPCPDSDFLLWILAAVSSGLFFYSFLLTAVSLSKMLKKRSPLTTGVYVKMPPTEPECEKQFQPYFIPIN
Method: After each round of Affinity Maturation, the cyclic peptide genes were recovered and subcloned into pET-Mal vector (FIG. 2) in the same manner as described above to perform base sequence analysis. For the 94 single colonies analyzed for sequence, E. coli transformants were inoculated into 100 μL of 2×YT medium containing ampicillin (final concentration 50 μg/mL), incubated at 37° C. for 3-5 hours (OD600=0.5-0.8), then added with IPTG (final concentration 0.5 mM) and incubated at 25° C. overnight. […] The plates were washed 5 times with 100 μL/well of TBST, and binding of cyclic peptides to the antigen was detected by 20 μL/well of chromogenic substrate (0.4 mg/mL 3,3′,5,5′-Tetramethyl-benzidine, 0.01% hydrogen peroxide). After 15 minutes of reaction at room temperature, the reaction was stopped with 20 μL/well of 2N HCl, and absorbance at 450 nm was measured using a plate reader (infinite F200: TECAN) (Table 5).
Using the CTLA-4 binding clone #10 ([…]) (SEQ ID NO: 27), which had high affinity, as the original clone, a series of oligo DNAs encoding mutants in which any one amino acid residue except cysteine was sequentially replaced with alanine were synthesized and each oligo DNA was subcloned into pET-Mal vector (FIG. 2), and the binding activity of the alanine substitution mutants to CTLA-4 was evaluated by ELISA as described above.

[2] = molecular target: T2, CTLA-4-Fc (Recombinant Human CTLA4-Fc chimera) versus Human Fc (Homo sapiens, UniProt P16410); test: Ribosome display pull down assay of enriched clones; type: binding; details: CTLA-4 Fc versus Human Fc
T2 construct: purchased R&D systems
T2 sequence (P16410 with tags, fused parts or gaps limits assumed): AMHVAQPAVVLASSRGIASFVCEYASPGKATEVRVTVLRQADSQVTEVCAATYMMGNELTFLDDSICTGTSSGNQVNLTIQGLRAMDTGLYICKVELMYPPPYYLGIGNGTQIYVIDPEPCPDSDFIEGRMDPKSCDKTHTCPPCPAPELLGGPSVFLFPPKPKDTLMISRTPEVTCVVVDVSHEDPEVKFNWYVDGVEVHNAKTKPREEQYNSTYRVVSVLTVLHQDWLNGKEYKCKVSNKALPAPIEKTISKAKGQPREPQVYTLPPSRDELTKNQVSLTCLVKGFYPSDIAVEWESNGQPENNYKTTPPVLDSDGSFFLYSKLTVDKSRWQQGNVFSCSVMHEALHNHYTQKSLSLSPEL
Method: (§1) CTLA-4 protein (Recombinant Human CTLA4-Fc chimera: R&D systems) was biotinylated according to the standard protocol for EZ-Link NHS-PEO12-Biotin (PIERCE). Biotinylation of CTLA-4 protein was confirmed mobility shift of the band in SDS-PAGE. The concentration of biotinylated CTLA-4 protein was measured by using BCA Protein Assay Kit (PIERCE)
Dynabeads MyOne Streptavidin T1 magnetic beads (100 μL slurry, Invitrogen) pre-blocked overnight with 5% SuperBlock at 4° C. was trapped with MagneSphere Magnetic Separation Stand (Promega) and washed twice with 500 μL of wash buffer solution. 100 pmol of biotinylated antigen protein was added and immobilized on the magnetic beads at 4° C. After 60 min, the magnetic beads were trapped with MagneSphere Magnetic Separation Stand (Promega) and washed 3 times with 500 μL of wash buffer solution. The recovered magnetic beads were added with post-translation reaction solution containing ribosome display complexes (peptide-ribosome-mRNA complexes) and stirred with rotation at 4° C. for 1 hr. A supernatant was discarded by MagneSphere Magnetic Separation Stand (Promega), and the recover magnetic beads were added with 1 mL of wash buffer solution and stirred with rotation at 4° C. for 5 min. […] A part of purified mRNA was reacted with RNA-direct SYBR Green Realtime PCR Master Mix (TOYOBO) and quantified by using Light Cycler 480 (Roche).

[3] = molecular target: T3, CTLA-4 protein (Recombinant Human CTLA4-Fc chimera) (Homo sapiens, UniProt P16410); test: Affinity measurement of MBP fusion clone by BLItz system (biotinylated CTLA-4 on SA sensor chip); type: binding
T3 construct: purchased R&D systems
Method: as §1
E. coli transformants were inoculated into 200 mL of 2×YT medium containing ampicillin (final concentration 50 μg/mL), incubated at 37° C. for 3-5 hours (OD600=0.5-0.8), and then added with IPTG (final concentration 0.5 mM) and incubated at 25° C. overnight. The grown E. coli cells were collected by centrifugation, resuspended in 60 mL of lysis buffer (20 mM Tris HCl pH 7.5, 500 mM NaCl), and disrupted by a sonicator (Bioruptor UCD-250). The disrupted cell suspension was centrifuged, the supernatant was collected, filtered through a 0.22 μm filter, and subjected to affinity purification by MBPTrap (GE Healthcare). The purified protein solution was subjected to a buffer exchange into PBS by a dialysis membrane. Purity was confirmed by SDS-PAGE and protein concentration was determined using the BCA Protein Assay Kit (PIERCE).
The affinity of the purified CTLA-4 binding clone (H12SSI-Ctla4-3-02) to CTLA-4 was measured using BLItz system (forte Bio). All operations were performed according to the instruction manual of the BLItz system. The biotinylated CTLA-4 protein was immobilized on the SA sensor chip via streptavidin.

CTLA-4 [4] = molecular target: T4, CTLA-4 (Homo sapiens, UniProt P16410); test: Evaluation of binding after Affinity Maturation selection by ELISA (S/N ratio, Table 5); details: for ELISA MBP-fusion Orencia (absorbance at 450 nm): MBP-fused cyclic peptide, Orencia wells; for ELISA MBP-fusion S/N(SA): ratio of Orencia signal to SA signal, binding = S/N not less than 2
T4 construct: IgG1 Fc (own knowledge: Orencia = abatacept, CTLA4-Ig)
Method: The basic operation of ribosome display was performed in the same manner as described above. Detailed experimental conditions for Affinity Maturation are indicated below. 2 μL of Nanolink streptavidin magnetic beads (SoluLink) were used as magnetic beads to immobilize the antigen, and 1 mL of CTLA-4 protein solution (1 μM) was used as a wash solution. The amount of biotinylated CTLA-4 immobilized on the magnetic beads was 10 pmol in the 1st round, 2 pmol in the 2nd round, and 1 pmol in the 3rd round, respectively. The washing period was 2 hours for the 1st round, 19 hours for the 2nd round, and 67 hours for the 3rd round. The number of wash cycle was one time (2 hours) in the 1st round, two times (about every 10 hours) in the […], and six times (about every 10 hours) in the 3rd round. After each round of RT-PCR, Error-Prone PCR was performed in the same manner as described above.
(§2) After each round of Affinity Maturation, the cyclic peptide genes were recovered and subcloned into pET-Mal vector (FIG. 2) in the same manner as described above to perform base sequence analysis. For the 94 single colonies analyzed for sequence, E. coli transformants were inoculated into 100 μL of 2×YT medium containing ampicillin (final concentration 50 μg/mL), incubated at 37° C. for 3-5 hours (OD600=0.5-0.8), then added with IPTG (final concentration 0.5 mM) and incubated at 25° C. overnight. 10 μL of E. coli cultured medium was added with 90 μL of PBS and 40 μL of lysis reagent (20 μL BugBuster Protein Extraction Reagent (Novagen), 20 μL Lysozyme solution 2.5 mg/mL) to lyse E. coli cells for 1 hour at room temperature. The cell lysate was added with 40 μL of 12.5% skim milk solution (TBST) and blocked for 1 hour at room temperature. In parallel, antigen protein was immobilized overnight at 4° C. in 384-well plates at 100 ng/20 μL per well, and each well was washed twice with 100 μL/well of TBST, added with 100 μL/well of 5% skim milk solution (TBST) for blocking for 1 hour at room temperature, and washed twice with 100 μL/well of TBST to obtain antigen-immobilized plates. 20 μL/well of blocking-treated E. coli extract was added to the antigen-immobilized plates and gently stirred at room temperature using a plate mixer. After 1 hour, the plates were washed 5 times with 100 μL/well of TBST, 20 μL/well of anti-FLAG M2-HRP conjugate (1:2000 dilution, Sigma) was added and gently stirred on a plate mixer for 1 hour at room temperature. The plates were washed 5 times with 100 μL/well of TBST, and binding of cyclic peptides to the antigen was detected by 20 μL/well of chromogenic substrate (0.4 mg/mL 3,3′,5,5′-Tetramethyl-benzidine, 0.01% hydrogen peroxide). After 15 minutes of reaction at room temperature, the reaction was stopped with 20 μL/well of 2N HCl, and absorbance at 450 nm was measured using a plate reader (infinite F200: TECAN) (Table 5).
T4 sequence (P16410 with tags, fused parts or gaps limits assumed): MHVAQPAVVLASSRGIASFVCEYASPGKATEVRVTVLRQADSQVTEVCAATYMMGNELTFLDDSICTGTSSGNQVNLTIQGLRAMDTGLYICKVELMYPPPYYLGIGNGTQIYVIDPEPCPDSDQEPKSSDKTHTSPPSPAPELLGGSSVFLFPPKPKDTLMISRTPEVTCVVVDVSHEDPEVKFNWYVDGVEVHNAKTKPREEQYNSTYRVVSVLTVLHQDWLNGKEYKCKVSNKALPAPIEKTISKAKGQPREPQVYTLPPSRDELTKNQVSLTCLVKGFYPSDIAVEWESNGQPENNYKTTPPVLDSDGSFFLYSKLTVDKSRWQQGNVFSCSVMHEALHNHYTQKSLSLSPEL

SA = SA (Streptomyces avidinii, UniProt P22629); test: ELISA background signal of MBP-fused cyclic peptides on SA wells (Table 5); type: binding; details: MBP-fused cyclic peptide
Sequence of SA (P22629 25-183): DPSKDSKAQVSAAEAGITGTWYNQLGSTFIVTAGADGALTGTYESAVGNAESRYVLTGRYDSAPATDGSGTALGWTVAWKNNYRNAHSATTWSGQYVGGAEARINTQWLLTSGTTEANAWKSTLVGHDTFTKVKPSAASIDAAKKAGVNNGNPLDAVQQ
Method: as §2
An Error-Prone Library was prepared based on H12SSI-Ctla4-3-02, and Affinity Maturation selection experiments were performed. […]

[5] = molecular target: T5, binding of CTLA-4 to CD80 (Homo sapiens, UniProt P16410); test: CTLA4:B7-1[Biotinylated] Inhibitor Screening Assay Kit (IC50 measurement); type: biochemical
T5 construct: purchased BPS Biosciences
T5 sequence (P16410 37-162 limits assumed): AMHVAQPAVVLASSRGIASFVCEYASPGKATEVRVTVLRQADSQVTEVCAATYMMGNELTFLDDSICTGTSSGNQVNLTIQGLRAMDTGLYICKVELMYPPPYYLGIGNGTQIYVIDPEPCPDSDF
Text: IC50 can be determined by using, for example, competitive ELISA, surface plasmon resonance (BIAcore (trademark)) analysis or the like. IC50 value for the cyclic peptide of the present invention with respect to its inhibition of binding between human CTLA-4 and human CD80 is preferably measured by CTLA4:B7-1 [Biotinylated] Inhibitor Screening Assay Kit (BPS Bioscience) according to the Example below.
Among the clones obtained in the Affinity Maturation selection experiment, clone #19 ([…]) (SEQ ID NO: 22), which has high affinity to CTLA-4 in EC50 measurement, was measured for its activity to inhibit binding of CTLA-4 to CD80. The measurement of inhibitory activity was performed using the CTLA4:B7-1[Biotinylated] Inhibitor Screening Assay Kit (BPS Biosciences). The experiment was performed according to the standard protocol attached to the kit.
In addition, peptides with glycine added to the N-terminus (Gly-clone #19: […] (SEQ ID NO: 26)/Gly-H12SSI-Ctla4-3-02: […] (SEQ ID NO: 25)) were chemically synthesized for the measurement of inhibitory activity. Inhibitory activity was measured using the CTLA4:B7-1 [Biotinylated] Inhibitor Screening Assay Kit (BPS Biosciences) as described above.

CTLA-4 [6] = molecular target: T1, CTLA-4; test: Affinity measurement of CTLA-4 binding clones after Affinity Maturation (EC50 by ELISA, Table 6); details: for CTLA-4 affinity improved over the original clone: EC50 by ELISA, MBP fusion cyclic peptides; for EC50: N-terminal MBP fusion protein of the CTLA-4 binding clone, EC50 calculated from ELISA binding curve
Method: For each of the CTLA-4 binding clones obtained by Affinity Maturation, purified N-terminal MBP fusion protein solution (400 μg/mL) was prepared and samples serially 2-fold diluted with PBS were prepared. CTLA-4 was immobilized overnight at 4° C. in 384-well plates at 100 ng/20 μL per well, and each well was washed twice with 100 μL/well of TBST, added with 100 μL/well of 5% skim milk solution (TBST) for blocking for 1 hour at room temperature, and washed twice with 100 μL/well of TBST to obtain antigen-immobilized plates. 20 μL/well of serially-diluted N-terminal MBP fusion protein solution was added to the antigen-immobilized plates and gently stirred at room temperature using a plate mixer. After 1 hour, the plates were washed 5 times with 100 μL/well of TBST, 20 μL/well of anti-FLAG M2-HRP conjugate (1:2000 dilution, Sigma) was added and gently stirred on a plate mixer for 1 hour at room temperature. Further, the plates were washed 5 times with 100 μL/well of TBST, and binding of N-terminal MBP fusion proteins to the antigen was detected by 20 μL/well of chromogenic substrate (0.4 mg/mL 3,3′,5,5′-Tetramethyl-benzidine, 0.01% hydrogen peroxide). After 15 minutes of reaction at room temperature, the reaction was stopped with 20 μL/well of 2N HCl, and absorbance at 450 nm was measured using a plate reader (infinite F200: TECAN). The graph was plotted with the vertical axis as the absorbance of ELISA and the horizontal axis as the concentration of N-terminal MBP fusion protein of the CTLA4-binding clones (FIG. 5), and the EC50 was calculated from the obtained binding curve (Table 6).

CTLA-4 [7] = molecular target: T1, CTLA-4; test: Affinity measurement of synthetic biotinylated peptides by BLItz system (peptide on SA sensor chip); type: binding; details: synthetic Biotin-PEG4-Lys peptide immobilized, BLItz
Method: Affinity for CTLA-4 was measured using the BLItz system (forte Bio). All operations were performed according to the instruction manual of the BLItz system. The biotinylated peptides were immobilized on the SA sensor chip via streptavidin.

Substance | binding activity of alanine substitution mutant to CTLA-4 (CTLA-4 [1]) | binding specificity in ribosome display pull down assay [2] | Kd [3] [nM] | ka [3] [M⁻¹ s⁻¹] | kd [3] [s⁻¹] | ELISA MBP-fusion Orencia (absorbance at 450 nm) (CTLA-4 [4]) | ELISA MBP-fusion S/N(SA) (CTLA-4 [4]) | ELISA MBP-fusion SA (absorbance at 450 nm) (SA) | IC50 ([5]; MBP fusion protein) [nM] | IC50 ([5]; synthesized peptide with N-terminal glycine) [nM] | CTLA-4 affinity improved over the original clone (CTLA-4 [6]) | EC50 (CTLA-4 [6]) [nM] | ka (CTLA-4 [7]) [M⁻¹ s⁻¹] | kd (CTLA-4 [7]) [s⁻¹] | Kd (CTLA-4 [7]; unit inferred) [nM]
I7A mutant: alanine substitution mutant of clone #10 with isoleucine at position 7 replaced (CLHPFLPAVSHHFCGR; not fully specified (bridges); cysteine pairing not given here; also: MBP fusion) | weak binding activity |  |  |  |  |  |  |  |  |  |  |  |  |  | 
CMHPFLLVVSHHFC (disulfide 1-14 (inferred); not fully specified (N-terminus)) [H12SSI-Ctla4-3-02] |  | bound specifically to CTLA-4 | 3880 | 3180 | 0.0123 | 0.2278 | 4.3 | 0.0536 |  |  |  |  |  |  | 
CMHPFLPIVSHHFCER [#19] |  |  |  |  |  | 1.0658 | 18.0 | 0.0591 | 1360 | 11500 | about 50 fold | 75 | 208000 | 0.0128 | 61.8
CLHPFLPIVSHHFCGR (cysteine pairing not given here; also: MBP fusion) [#10] |  |  |  |  |  | 1.1444 | 18.5 | 0.0617 |  |  | about 50 fold | 82 |  |  | 
